This experiment has as its target T1, recombinant histone H3.1–H4 tetramer (NEB, M2509S) (UniProt P68431 1-136; P62805 1-103).
T1 construct: histone H3.1 of the recombinant H3.1–H4 tetramer; histone H4 of the recombinant H3.1–H4 tetramer; As I recall the NEB product is the human tetramer; also called H3–H4; histone H3–H4; source: bought: NEB, M2509S (recombinant); copies: 2 + 2
The experiment is described as follows: pull-down; 20 pmol recombinant H3.1–H4 tetramer covalently coupled to NHS-activated magnetic beads; 5 pmol full-length SPT2 in 20 mM Tris–HCl pH 8.0, 500 mM NaCl, 0.1% Triton X-100, 0.1 mM TCEP, 1.5 h at 4 °C; washes with 700 or 800 mM NaCl. The note with it: both partners purified.

B1: HsSPT2, full-length (human SPT2), His6-tagged (natural protein)
chain: MDFREILMIASKGQGVNNVPKRYSLAVGPPKKDPKVKGVQSAAVQAFLKRKEEELRRKALEEKRRKEELVKKRIELKHDKKARAMAKRTKDNFHGYNGIPIEEKSKKRQATESHTSQGTDREYEMEEENEFLEYNHAESEQEYEEEQEPPKVESKPKVPLKSAPPPMNFTDLLRLAEKKQFEPVEIKVVKKSEERPMTAEELREREFLERKHRRKKLETDGKLPPTVSKKAPSQKESVGTKLSKGSGDRHPSSKGMPLPHAEKKSRPSMANEKHLALSSSKSMPGERIKAGSGNSSQPSLREGHDKPVFNGAGKPHSSTSSPSVPKTSASRTQKSAVEHKAKKSLSHPSHSRPGPMVTPHNKAKSPGVRQPGSSSSSAPGQPSTGVARPTVSSGPVPRRQNGSSSSGPERSISGSKKPTNDSNPSRRTVSGTCGPGQPASSSGGPGRPISGSVSSARPLGSSRGPGRPVSSPHELRRPVSGLGPPGRSVSGPGRSISGSIPAGRTVSNSVPGRPVSSLGPGQTVSSSGPTIKPKCTVVSETISSKNIISRSSNGQMNGMKPPLSGYRAAQGPQRLPFPTGYKRQREYEEEDDDDDEYDSEMEDFIEDEGEPQEEISKHIREIFGYDRKKYKDESDYALRYMESSWKEQQKEEAKSLRLGMQEDLEEMRREEEEMQRRRAKKLKRR
notes: human SPT2 (gene SPTY2D1), full length; source: E. coli Rosetta 2(DE3) pLysS BL21, purified (NiNTA, Flag M2 beads, Ulp1 cleavage); not shown: 2xFlag-SUMO, N-terminal, cleaved; His6, C-terminal, kept
Take B1: the binding result is recorded as “binds”.

The record behind these values is article PMC7615752, “The histone chaperone SPT2 regulates chromatin structure and function in Metazoa” (Nature structural & molecular biology, 2023).
